In paper PMC10939776:

Experiments:
[1] = target: Copalyl diphosphate synthase from Penicillium fellutanum (PfCPS), full-length wild type (Penicillium fellutanum); experiment: SEC
[2] = target: Copalyl diphosphate synthase from Penicillium fellutanum (PfCPS), full-length wild type (Penicillium fellutanum); experiment: cryo-EM structure

stoichiometry N [1]: 6 | stoichiometry N [2]: 6
Substance: Copalyl diphosphate synthase from Penicillium fellutanum (PfCPS), full-length wild type (enzyme)
